Laboratory results from patent US20210388087A1 (Chugai, published 2021).

Biological target: T1, Human CD137 ECD (human)
T1 construct: also called 4-1BB
Assay: SPR, vs parent H183/L072

T1 sequence (chain, as listed by the source limits assumed): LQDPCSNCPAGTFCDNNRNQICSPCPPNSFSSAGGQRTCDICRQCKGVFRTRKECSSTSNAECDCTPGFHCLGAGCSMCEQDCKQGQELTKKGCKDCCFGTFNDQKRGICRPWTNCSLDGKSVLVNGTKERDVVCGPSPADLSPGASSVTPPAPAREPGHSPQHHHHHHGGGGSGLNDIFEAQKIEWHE

| Binder | fold change of affinity |
| --- | --- |
| dBBDu183H V63D / dBBDu072L (antibody, name in Kabat numbering, V domains shown, as m1, one VH change) VH: QVQLVESGGGLVQPGRSLRLSCAASGFTFSNAWMHWVRQAPGKGLEWVAQIKDKGNAYAAYYAPSDKGRFTISRDDSKNSIYLQMNSLKTEDTAVYYCHYVHYASASTVLPAFGVDAWGQGTTVTVSS VL: DIVMTQSPLSLPVTPGEPASISCQASQELVHMNRNTYLHWYQQKPGQAPRLLIYKVSNRFPGVPDRFSGSGSGTDFTLKISRVEAEDVGVYYCAQGTSVPFTFGQGTKLEIK | 0.9 fold |
| dBBDu183H V63H / dBBDu072L (antibody, name in Kabat numbering, V domains shown, as m1, one VH change) VH: QVQLVESGGGLVQPGRSLRLSCAASGFTFSNAWMHWVRQAPGKGLEWVAQIKDKGNAYAAYYAPSHKGRFTISRDDSKNSIYLQMNSLKTEDTAVYYCHYVHYASASTVLPAFGVDAWGQGTTVTVSS VL: DIVMTQSPLSLPVTPGEPASISCQASQELVHMNRNTYLHWYQQKPGQAPRLLIYKVSNRFPGVPDRFSGSGSGTDFTLKISRVEAEDVGVYYCAQGTSVPFTFGQGTKLEIK | 1 fold |
| dBBDu183H V63Q / dBBDu072L (antibody, name in Kabat numbering, V domains shown, as m1, one VH change) VH: QVQLVESGGGLVQPGRSLRLSCAASGFTFSNAWMHWVRQAPGKGLEWVAQIKDKGNAYAAYYAPSQKGRFTISRDDSKNSIYLQMNSLKTEDTAVYYCHYVHYASASTVLPAFGVDAWGQGTTVTVSS VL: DIVMTQSPLSLPVTPGEPASISCQASQELVHMNRNTYLHWYQQKPGQAPRLLIYKVSNRFPGVPDRFSGSGSGTDFTLKISRVEAEDVGVYYCAQGTSVPFTFGQGTKLEIK | 1.3 fold |
| dBBDu183H V63T / dBBDu072L (antibody, name in Kabat numbering, V domains shown, as m1, one VH change) VH: QVQLVESGGGLVQPGRSLRLSCAASGFTFSNAWMHWVRQAPGKGLEWVAQIKDKGNAYAAYYAPSTKGRFTISRDDSKNSIYLQMNSLKTEDTAVYYCHYVHYASASTVLPAFGVDAWGQGTTVTVSS VL: DIVMTQSPLSLPVTPGEPASISCQASQELVHMNRNTYLHWYQQKPGQAPRLLIYKVSNRFPGVPDRFSGSGSGTDFTLKISRVEAEDVGVYYCAQGTSVPFTFGQGTKLEIK | 0.9 fold |
| dBBDu183H V100cH / dBBDu072L (antibody, name in Kabat numbering, V domains shown, as m1, one VH change) VH: QVQLVESGGGLVQPGRSLRLSCAASGFTFSNAWMHWVRQAPGKGLEWVAQIKDKGNAYAAYYAPSVKGRFTISRDDSKNSIYLQMNSLKTEDTAVYYCHYVHYASASTHLPAFGVDAWGQGTTVTVSS VL: DIVMTQSPLSLPVTPGEPASISCQASQELVHMNRNTYLHWYQQKPGQAPRLLIYKVSNRFPGVPDRFSGSGSGTDFTLKISRVEAEDVGVYYCAQGTSVPFTFGQGTKLEIK | 0.5 fold |
| dBBDu183H V63G / dBBDu072L (antibody, name in Kabat numbering, V domains shown, as m1, one VH change) VH: QVQLVESGGGLVQPGRSLRLSCAASGFTFSNAWMHWVRQAPGKGLEWVAQIKDKGNAYAAYYAPSGKGRFTISRDDSKNSIYLQMNSLKTEDTAVYYCHYVHYASASTVLPAFGVDAWGQGTTVTVSS VL: DIVMTQSPLSLPVTPGEPASISCQASQELVHMNRNTYLHWYQQKPGQAPRLLIYKVSNRFPGVPDRFSGSGSGTDFTLKISRVEAEDVGVYYCAQGTSVPFTFGQGTKLEIK | 1.3 fold |
| dBBDu183H V100cE / dBBDu072L (antibody, name in Kabat numbering, V domains shown, as m1, one VH change) VH: QVQLVESGGGLVQPGRSLRLSCAASGFTFSNAWMHWVRQAPGKGLEWVAQIKDKGNAYAAYYAPSVKGRFTISRDDSKNSIYLQMNSLKTEDTAVYYCHYVHYASASTELPAFGVDAWGQGTTVTVSS VL: DIVMTQSPLSLPVTPGEPASISCQASQELVHMNRNTYLHWYQQKPGQAPRLLIYKVSNRFPGVPDRFSGSGSGTDFTLKISRVEAEDVGVYYCAQGTSVPFTFGQGTKLEIK | 0.5 fold |
| dBBDu183H V63R / dBBDu072L (antibody, name in Kabat numbering, V domains shown, as m1, one VH change) VH: QVQLVESGGGLVQPGRSLRLSCAASGFTFSNAWMHWVRQAPGKGLEWVAQIKDKGNAYAAYYAPSRKGRFTISRDDSKNSIYLQMNSLKTEDTAVYYCHYVHYASASTVLPAFGVDAWGQGTTVTVSS VL: DIVMTQSPLSLPVTPGEPASISCQASQELVHMNRNTYLHWYQQKPGQAPRLLIYKVSNRFPGVPDRFSGSGSGTDFTLKISRVEAEDVGVYYCAQGTSVPFTFGQGTKLEIK | 1 fold |
| dBBDu183H V63S / dBBDu072L (antibody, name in Kabat numbering, V domains shown, as m1, one VH change) VH: QVQLVESGGGLVQPGRSLRLSCAASGFTFSNAWMHWVRQAPGKGLEWVAQIKDKGNAYAAYYAPSSKGRFTISRDDSKNSIYLQMNSLKTEDTAVYYCHYVHYASASTVLPAFGVDAWGQGTTVTVSS VL: DIVMTQSPLSLPVTPGEPASISCQASQELVHMNRNTYLHWYQQKPGQAPRLLIYKVSNRFPGVPDRFSGSGSGTDFTLKISRVEAEDVGVYYCAQGTSVPFTFGQGTKLEIK | 0.9 fold |
| dBBDu183H V63E / dBBDu072L (antibody, name in Kabat numbering, V domains shown, as m1, one VH change) VH: QVQLVESGGGLVQPGRSLRLSCAASGFTFSNAWMHWVRQAPGKGLEWVAQIKDKGNAYAAYYAPSEKGRFTISRDDSKNSIYLQMNSLKTEDTAVYYCHYVHYASASTVLPAFGVDAWGQGTTVTVSS VL: DIVMTQSPLSLPVTPGEPASISCQASQELVHMNRNTYLHWYQQKPGQAPRLLIYKVSNRFPGVPDRFSGSGSGTDFTLKISRVEAEDVGVYYCAQGTSVPFTFGQGTKLEIK | 0.9 fold |
| dBBDu183H V63K / dBBDu072L (antibody, name in Kabat numbering, V domains shown, as m1, one VH change) VH: QVQLVESGGGLVQPGRSLRLSCAASGFTFSNAWMHWVRQAPGKGLEWVAQIKDKGNAYAAYYAPSKKGRFTISRDDSKNSIYLQMNSLKTEDTAVYYCHYVHYASASTVLPAFGVDAWGQGTTVTVSS VL: DIVMTQSPLSLPVTPGEPASISCQASQELVHMNRNTYLHWYQQKPGQAPRLLIYKVSNRFPGVPDRFSGSGSGTDFTLKISRVEAEDVGVYYCAQGTSVPFTFGQGTKLEIK | 0.8 fold |
| dBBDu183H V63W / dBBDu072L (antibody, name in Kabat numbering, V domains shown, as m1, one VH change) VH: QVQLVESGGGLVQPGRSLRLSCAASGFTFSNAWMHWVRQAPGKGLEWVAQIKDKGNAYAAYYAPSWKGRFTISRDDSKNSIYLQMNSLKTEDTAVYYCHYVHYASASTVLPAFGVDAWGQGTTVTVSS VL: DIVMTQSPLSLPVTPGEPASISCQASQELVHMNRNTYLHWYQQKPGQAPRLLIYKVSNRFPGVPDRFSGSGSGTDFTLKISRVEAEDVGVYYCAQGTSVPFTFGQGTKLEIK | 1 fold |
| dBBDu183H V63F / dBBDu072L (antibody, name in Kabat numbering, V domains shown, as m1, one VH change) VH: QVQLVESGGGLVQPGRSLRLSCAASGFTFSNAWMHWVRQAPGKGLEWVAQIKDKGNAYAAYYAPSFKGRFTISRDDSKNSIYLQMNSLKTEDTAVYYCHYVHYASASTVLPAFGVDAWGQGTTVTVSS VL: DIVMTQSPLSLPVTPGEPASISCQASQELVHMNRNTYLHWYQQKPGQAPRLLIYKVSNRFPGVPDRFSGSGSGTDFTLKISRVEAEDVGVYYCAQGTSVPFTFGQGTKLEIK | 0.9 fold |
| dBBDu183H V63N / dBBDu072L (antibody, name in Kabat numbering, V domains shown, as m1, one VH change) VH: QVQLVESGGGLVQPGRSLRLSCAASGFTFSNAWMHWVRQAPGKGLEWVAQIKDKGNAYAAYYAPSNKGRFTISRDDSKNSIYLQMNSLKTEDTAVYYCHYVHYASASTVLPAFGVDAWGQGTTVTVSS VL: DIVMTQSPLSLPVTPGEPASISCQASQELVHMNRNTYLHWYQQKPGQAPRLLIYKVSNRFPGVPDRFSGSGSGTDFTLKISRVEAEDVGVYYCAQGTSVPFTFGQGTKLEIK | 0.9 fold |
